The labels stand for the following.
B1: HDV Ribozyme (parent)
chain: GGCCGGCAUGGUCCCAGCCUCCUCGCUGGCGCCGGCUGGGCAACAUUCCGAGGGGACCGUCCCCUCGGUAAUGGCGAAUGGGACCCA

In the data set the parent is B1. Nature of the data set: self-cleavage, relative activity (ratio to wild type); higher = more cleavage; co-transcriptional.
On to G1A C18U, for which the self-cleavage amounted to 0.0475.

Regarding G10U C33U, the self-cleavage is 0.466.

In the case of C49G G68A, the self-cleavage was found to be 0.789.

With U60C U69C, the self-cleavage was determined as 1.2.

With C7U G25C, the self-cleavage is 0.0378.

Regarding G25C C75A, the self-cleavage was found to be 0.

Turning to G11C G67A, the self-cleavage was 0.248.

With U60C C62A, the self-cleavage was 1.01.

Take A8G G11C: the self-cleavage came out at 0.0437.

Consider U23G C41U, for which the self-cleavage was 0.723.

Take U27A G67C: the self-cleavage came to 0.59.

As for C30U C62U, the self-cleavage was 0.562.

Take A77U C85U: the self-cleavage was found to be 0.96.

For the variant C18U U27A, the self-cleavage stood at 0.95.

For C32U G74U, the self-cleavage turned out to be 0.176.

With G17C C26A, the self-cleavage was 0.369.

As for G34A C41U, the self-cleavage came to 0.217.

G54C C63A: the self-cleavage was 1.02.

On to G35U A42G, for which the self-cleavage was found to be 0.17.

In the case of C24A G52U, the self-cleavage was 0.769.

Consider G55U A77C, for which the self-cleavage turned out to be 0.353.

Turning to C49A C63A, the self-cleavage came out at 0.597.

For G35U G80U, the self-cleavage was 0.223.

Regarding G38C C44U, the self-cleavage was found to be 0.104.

In the case of C26A G59A, the self-cleavage is 1.

For U37C C49G, the self-cleavage is 1.21.

For G1A G59U, the self-cleavage was 0.214.

With C24G G38U, the self-cleavage stood at 0.0268.

Turning to A42U A78C, the self-cleavage was found to be 0.169.

As to G28U A83C, the self-cleavage came to 0.0811.

Regarding C48A U69G, the self-cleavage came out at 0.997.

With G28A G39A, the self-cleavage is 0.187.

As to G31U A51C, the self-cleavage worked out at 0.462.

For the variant U65A G76U, the self-cleavage stood at 1.04.

On to G38U A45U, for which the self-cleavage was 0.158.

With G11C U37C, the self-cleavage came to 0.201.

As to A45U G81U, the self-cleavage worked out at 0.277.

On to C18U G55C, for which the self-cleavage stood at 0.893.

For the variant U9G U69G, the self-cleavage was determined as 0.767.

As for C4G A42C, the self-cleavage came out at 0.

With A42C U65C, the self-cleavage was found to be 0.268.

For the variant C32U G54A, the self-cleavage stood at 0.891.

C33U C85G: the self-cleavage amounted to 0.494.

Turning to C26G C30G, the self-cleavage was 0.

For G54U G67A, the self-cleavage is 1.01.

With G17A A45C, the self-cleavage was determined as 0.415.

Regarding A8G A87G, the self-cleavage worked out at 0.942.

Consider U27C C36G, for which the self-cleavage was found to be 0.185.

Take C22A A71U: the self-cleavage is 0.326.

In the case of U37C U79C, the self-cleavage is 0.193.

Take C4U U79C: the self-cleavage worked out at 0.136.

Take C41G C49G: the self-cleavage turned out to be 0.597.

Consider G10C U20C, for which the self-cleavage amounted to 0.0739.

For G35U G38U, the self-cleavage stood at 0.

In the case of C61G A70C, the self-cleavage is 0.944.

With A8C U23C, the self-cleavage is 0.506.

Regarding G11U C19U, the self-cleavage was 0.0489.

As to G59A C66A, the self-cleavage is 0.867.

Take U23C C41G: the self-cleavage came out at 0.201.

Turning to C85U C86G, the self-cleavage amounted to 0.946.

Turning to A16U G59A, the self-cleavage is 0.967.

For U20G G25U, the self-cleavage stood at 0.166.

As to U12A C63A, the self-cleavage was found to be 0.519.

On to C13A C33G, for which the self-cleavage was determined as 0.175.

Turning to A71G G82U, the self-cleavage was 0.312.

Consider C33G U65C, for which the self-cleavage was 0.115.

As to C14U C24G, the self-cleavage is 0.121.

With A43G C62U, the self-cleavage amounted to 0.646.

For the variant C32U G35U, the self-cleavage was found to be 0.376.

For C15A G39A, the self-cleavage was 0.095.

As to C41G C63U, the self-cleavage turned out to be 0.844.

Take C7A G74U: the self-cleavage was determined as 0.201.

Regarding C4G A56C, the self-cleavage stood at 0.32.

As for C18A C26U, the self-cleavage is 0.312.

Consider G73U A83G, for which the self-cleavage is 0.219.

C66G A83G: the self-cleavage was determined as 0.72.

Take U9G U72A: the self-cleavage worked out at 0.633.

With G59A U72A, the self-cleavage was determined as 0.698.

Turning to C26U C62G, the self-cleavage amounted to 0.618.

As for A16C U47A, the self-cleavage is 0.688.

In the case of G80C A87U, the self-cleavage was 0.177.

G34C C66G: the self-cleavage was 0.169.

With G5C C61U, the self-cleavage was found to be 0.

As to C30A U47G, the self-cleavage came to 0.682.

Consider G29A C85A, for which the self-cleavage was determined as 0.17.

For the variant C3U C66G, the self-cleavage worked out at 0.758.

Consider C15U A83U, for which the self-cleavage is 0.26.

Consider C41A G82A, for which the self-cleavage amounted to 0.223.

For the variant U9G G68U, the self-cleavage was 0.782.

For the variant G54C U72A, the self-cleavage was found to be 0.702.

For G17A U69A, the self-cleavage turned out to be 0.731.

Consider G5U G76C, for which the self-cleavage is 0.227.

Consider G2A U60A, for which the self-cleavage was 0.208.

For G17A C36A, the self-cleavage was found to be 0.138.

G2A U20C: the self-cleavage was 0.0536.

On to U47C U69C, for which the self-cleavage was 1.08.

For G35C G53C, the self-cleavage came out at 0.208.

As for C21G C84G, the self-cleavage amounted to 0.

For C14A G68A, the self-cleavage was determined as 0.811.

Take C21U A83C: the self-cleavage is 0.108.

On to C21U G34U, for which the self-cleavage is 0.0354.

G17A U20G: the self-cleavage came out at 0.156.

In the case of C4G C61G, the self-cleavage is 0.325.

Take G28U G40A: the self-cleavage was determined as 0.104.

As to C19U C84A, the self-cleavage is 0.0554.

For C21A C36A, the self-cleavage worked out at 0.117.

As to G53U C84U, the self-cleavage is 0.821.

Regarding G11A G50A, the self-cleavage was found to be 0.366.

For the variant G28C U60A, the self-cleavage was found to be 0.104.

C36U C49U: the self-cleavage came out at 0.743.

For G28A C66A, the self-cleavage is 0.0811.

For the variant C36U G68U, the self-cleavage was 0.786.

Consider G10U A70G, for which the self-cleavage came out at 0.858.

As to C64G C75G, the self-cleavage came out at 0.

As for U12G G17U, the self-cleavage is 0.475.

As for C18U A71C, the self-cleavage is 0.259.

On to C7G C61G, for which the self-cleavage worked out at 0.287.

Take G5C C48U: the self-cleavage is 0.308.

As for G10U C58G, the self-cleavage stood at 0.793.

For G59C A83C, the self-cleavage is 0.514.

As to U46C A78C, the self-cleavage turned out to be 0.0426.

Regarding G10C U72A, the self-cleavage was determined as 0.415.

On to C15G G35C, for which the self-cleavage was found to be 0.0791.

With C61A C84G, the self-cleavage was 0.795.

G35A U46C: the self-cleavage stood at 0.289.

As to G52U G54A, the self-cleavage was 0.653.

Turning to C22U G28A, the self-cleavage worked out at 0.0804.

On to G6U C49A, for which the self-cleavage was 0.582.

Regarding U23A C36U, the self-cleavage was 0.671.

A16U G34A: the self-cleavage was found to be 0.166.

In the case of G2A C19U, the self-cleavage was 0.

In the case of G39A G74U, the self-cleavage came out at 0.176.

As for G10A G34A, the self-cleavage stood at 0.164.

U12G U37A: the self-cleavage turned out to be 0.0554.

For U12C C32A, the self-cleavage was found to be 0.256.

In the case of C49U C84G, the self-cleavage was 0.364.

On to C62G G73C, for which the self-cleavage was 0.446.

In the case of C21U C41U, the self-cleavage amounted to 0.267.

Regarding G34A A87C, the self-cleavage was 0.126.

For C4A C13A, the self-cleavage worked out at 0.0282.

With G2C C58U, the self-cleavage is 0.0256.

As to C21U G67U, the self-cleavage was 0.174.

As for G80U G81A, the self-cleavage turned out to be 0.277.

As for G53C A87G, the self-cleavage was 0.971.

As for C33U G53C, the self-cleavage came to 0.727.

As for G5C C62A, the self-cleavage turned out to be 0.0665.

As to U37C G67U, the self-cleavage is 0.974.

In the case of G1U G39A, the self-cleavage was 0.24.

For U20A C84A, the self-cleavage was determined as 0.208.

For the variant C44A C58A, the self-cleavage stood at 1.01.

On to U20C C30A, for which the self-cleavage was 0.0923.

C48A C63U: the self-cleavage is 1.07.

On to G1U A83U, for which the self-cleavage came out at 0.358.

As for C4A A51G, the self-cleavage came to 0.502.

For the variant A45U G68C, the self-cleavage came out at 0.706.

As to C13G C64G, the self-cleavage was found to be 0.138.

In the case of C19G C75A, the self-cleavage amounted to 0.0773.

For the variant C14G G52A, the self-cleavage worked out at 0.739.

For the variant G1A G53C, the self-cleavage was 0.

As for G6C G34A, the self-cleavage is 0.0536.

With G25U C61A, the self-cleavage is 0.287.

For the variant C15U A77C, the self-cleavage worked out at 0.185.

On to G11U C57G, for which the self-cleavage turned out to be 0.358.

As to G6A U23A, the self-cleavage worked out at 0.569.

Turning to G25U G53C, the self-cleavage is 0.155.

For U12C A70G, the self-cleavage turned out to be 0.692.

G52U A70G: the self-cleavage was found to be 0.878.
